Experiments:
Assay in all cases: holdup assay
Parameters in all cases: key: below the threshold = too weak to quantify, mostly under pKd 3.1 to 4
Details in all cases: plain residues with an end cap or a label only (N-terminal biotin on a linker: ttds)
LNX2_1, Q8N448 = target: T1, LNX2_1, Q8N448
T1 sequence (Q8N448 228-328, limits assumed, looked up): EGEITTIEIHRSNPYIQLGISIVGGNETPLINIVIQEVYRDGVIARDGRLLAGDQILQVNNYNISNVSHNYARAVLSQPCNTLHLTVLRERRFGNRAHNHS

NHERF4_3, Q86UT5 = target: NHERF4_3, Q86UT5
Sequence of NHERF4_3, Q86UT5 (Q86UT5 325-412): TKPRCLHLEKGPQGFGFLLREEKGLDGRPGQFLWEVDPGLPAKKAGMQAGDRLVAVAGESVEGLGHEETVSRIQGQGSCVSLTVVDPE

LNX1_4, Q8TBB1 = target: LNX1_4, Q8TBB1
Sequence of LNX1_4, Q8TBB1 (Q8TBB1 631-726): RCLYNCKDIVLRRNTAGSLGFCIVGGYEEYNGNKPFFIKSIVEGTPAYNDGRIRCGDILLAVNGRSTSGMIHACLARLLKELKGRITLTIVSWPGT

Q9Y3R0 = target: Q9Y3R0
Q9P227 = target: Q9P227
Q96HC4 = target: Q96HC4
O43166 = target: O43166
Q8IUC4 = target: Q8IUC4
O00233 = target: O00233
Q96FS4 = target: Q96FS4
Q96JB8 = target: Q96JB8
Q6ZWJ1 = target: Q6ZWJ1
Q96JY6 = target: Q96JY6
Q9UMS6 = target: Q9UMS6
O15021 = target: O15021
Q12923 = target: Q12923
Q70Z35 = target: Q70Z35
O75970 = target: O75970
Q9C0E4 = target: Q9C0E4
Q96SB3 = target: Q96SB3
O00560 = target: O00560
Q13368 = target: Q13368
Q92614 = target: Q92614
Q8TEW0 = target: Q8TEW0
Q9NR12 = target: Q9NR12
Q13009 = target: Q13009
Q9H190 = target: Q9H190
O60759 = target: O60759
Q9ULJ8 = target: Q9ULJ8
Q8TB45 = target: Q8TB45
Q8TDM6 = target: Q8TDM6

SSRTRRETQL [HPV16-E6, P03126]
pKd (LNX2_1, Q8N448): below the threshold
pKd (NHERF4_3, Q86UT5): 4.13
pKd (LNX1_4, Q8TBB1): below the threshold

STLTIFETAL [ABCC4, O15439]
pKd (Q9Y3R0): below the threshold
pKd (Q9P227): below the threshold
pKd (Q96HC4): below the threshold
pKd (O43166): below the threshold
pKd (Q8IUC4): below the threshold
pKd (O00233): below the threshold
pKd (Q96FS4): below the threshold
pKd (Q96JB8): below the threshold
pKd (Q6ZWJ1): below the threshold
pKd (Q96JY6): below the threshold
pKd (Q9UMS6): below the threshold
pKd (O15021): below the threshold
pKd (Q12923): below the threshold
pKd (Q70Z35): below the threshold
pKd (O75970): below the threshold
pKd (Q9C0E4): below the threshold
pKd (Q96SB3): below the threshold
pKd (O00560): below the threshold
pKd (Q13368): below the threshold
pKd (Q92614): below the threshold
pKd (Q8TEW0): below the threshold
pKd (Q9NR12): below the threshold
pKd (Q13009): below the threshold
pKd (Q9H190): below the threshold
pKd (O60759): below the threshold
pKd (Q9ULJ8): below the threshold

PKTPPTDTSV [KIR3DL3, Q8N743]
pKd (Q9Y3R0): below the threshold
pKd (Q9P227): below the threshold
pKd (Q96HC4): below the threshold
pKd (O43166): below the threshold
pKd (Q8IUC4): below the threshold
pKd (O00233): below the threshold
pKd (Q96FS4): below the threshold
pKd (Q96JB8): below the threshold
pKd (Q6ZWJ1): below the threshold
pKd (Q96JY6): below the threshold
pKd (Q9UMS6): below the threshold
pKd (O15021): below the threshold
pKd (Q12923): below the threshold
pKd (Q70Z35): below the threshold
pKd (O75970): below the threshold
pKd (Q9C0E4): below the threshold
pKd (Q96SB3): below the threshold
pKd (O00560): below the threshold
pKd (Q13368): below the threshold
pKd (Q92614): below the threshold
pKd (Q8TEW0): below the threshold
pKd (Q9NR12): below the threshold
pKd (Q13009): below the threshold
pKd (Q9H190): below the threshold
pKd (O60759): below the threshold
pKd (Q9ULJ8): below the threshold

RSLEEEESQL [GRASP, Q7Z6J2]
pKd (Q9Y3R0): below the threshold
pKd (Q9P227): below the threshold
pKd (Q96HC4): below the threshold
pKd (O43166): below the threshold
pKd (Q8IUC4): below the threshold
pKd (O00233): below the threshold
pKd (Q96FS4): below the threshold
pKd (Q96JB8): below the threshold
pKd (Q6ZWJ1): below the threshold
pKd (NHERF4_3, Q86UT5): below the threshold
pKd (Q96JY6): below the threshold
pKd (Q9UMS6): below the threshold
pKd (O15021): below the threshold
pKd (Q12923): below the threshold
pKd (Q70Z35): below the threshold
pKd (O75970): below the threshold
pKd (Q9C0E4): below the threshold
pKd (Q96SB3): below the threshold
pKd (O00560): below the threshold
pKd (Q13368): below the threshold
pKd (Q92614): below the threshold
pKd (Q8TEW0): below the threshold
pKd (Q9NR12): below the threshold
pKd (Q13009): below the threshold
pKd (Q9H190): below the threshold
pKd (O60759): below the threshold
pKd (Q9ULJ8): below the threshold

QSARYRDTEL [TJP2, Q9UDY2]
pKd (Q9Y3R0): below the threshold
pKd (Q9P227): below the threshold
pKd (Q96HC4): below the threshold
pKd (O43166): below the threshold
pKd (Q8IUC4): below the threshold
pKd (O00233): below the threshold
pKd (Q96FS4): below the threshold
pKd (Q96JB8): below the threshold
pKd (Q6ZWJ1): below the threshold
pKd (NHERF4_3, Q86UT5): below the threshold
pKd (Q96JY6): below the threshold
pKd (Q9UMS6): below the threshold
pKd (O15021): below the threshold
pKd (Q12923): below the threshold
pKd (Q70Z35): below the threshold
pKd (O75970): below the threshold
pKd (Q9C0E4): below the threshold
pKd (Q96SB3): below the threshold
pKd (O00560): below the threshold
pKd (Q13368): below the threshold
pKd (Q92614): below the threshold
pKd (Q8TEW0): below the threshold
pKd (Q9NR12): below the threshold
pKd (Q13009): below the threshold
pKd (Q9H190): below the threshold
pKd (O60759): below the threshold
pKd (Q9ULJ8): below the threshold

SRPQRTQTQV [HPV67-E6, A4U7F2]
pKd (NHERF4_3, Q86UT5): below the threshold

SVWLRKETRV [CYSLTR2, Q9NS75]
pKd (Q9Y3R0): below the threshold
pKd (Q9P227): below the threshold
pKd (Q96HC4): below the threshold
pKd (O43166): below the threshold
pKd (Q8IUC4): below the threshold
pKd (O00233): below the threshold
pKd (Q96FS4): below the threshold
pKd (Q8TB45): below the threshold
pKd (Q96JB8): below the threshold
pKd (Q8TDM6): below the threshold
pKd (Q6ZWJ1): below the threshold
pKd (NHERF4_3, Q86UT5): below the threshold
pKd (Q96JY6): below the threshold
pKd (Q9UMS6): below the threshold
pKd (O15021): below the threshold
pKd (Q12923): below the threshold
pKd (Q70Z35): below the threshold
pKd (O75970): below the threshold
pKd (Q9C0E4): below the threshold
pKd (Q96SB3): below the threshold
pKd (O00560): below the threshold
pKd (Q13368): below the threshold
pKd (Q92614): below the threshold
pKd (Q8TEW0): below the threshold
pKd (Q9NR12): below the threshold
pKd (Q13009): below the threshold
pKd (Q9H190): below the threshold
pKd (O60759): below the threshold
pKd (Q9ULJ8): below the threshold

Source: paper PMC9482650, “Quantitative fragmentomics allow affinity mapping of interactomes” (Nature Communications, 2022)
